Results taken from paper PMC4284738, “14-3-3 Proteins Participate in Light Signaling through Association with PHYTOCHROME INTERACTING FACTORs” (International Journal of Molecular Sciences, 2014).
Residue numbers refer to the chain shown, from its start.

How the values were obtained:
Experiment in all cases: pull-down; 0.3–20 µg of His-14-3-3κ incubated with MBP or MBP-PIFs in MBP column buffer at 4 °C in dark for 5–6 h, then amylose resin overnight; elution with 10 mM maltose; blot with anti-His and anti-MBP
Details in all cases: both partners purified
MBP-PIF1 = biological target: T1, MBP-PIF1 (Arabidopsis thaliana, UniProt Q8GZM7 1-478)
T1 construct: Transcription factor PIF1, Arabidopsis thaliana; source: E. coli BL21 (DE3), purified (amylose resin)
T1 sequence (looked up): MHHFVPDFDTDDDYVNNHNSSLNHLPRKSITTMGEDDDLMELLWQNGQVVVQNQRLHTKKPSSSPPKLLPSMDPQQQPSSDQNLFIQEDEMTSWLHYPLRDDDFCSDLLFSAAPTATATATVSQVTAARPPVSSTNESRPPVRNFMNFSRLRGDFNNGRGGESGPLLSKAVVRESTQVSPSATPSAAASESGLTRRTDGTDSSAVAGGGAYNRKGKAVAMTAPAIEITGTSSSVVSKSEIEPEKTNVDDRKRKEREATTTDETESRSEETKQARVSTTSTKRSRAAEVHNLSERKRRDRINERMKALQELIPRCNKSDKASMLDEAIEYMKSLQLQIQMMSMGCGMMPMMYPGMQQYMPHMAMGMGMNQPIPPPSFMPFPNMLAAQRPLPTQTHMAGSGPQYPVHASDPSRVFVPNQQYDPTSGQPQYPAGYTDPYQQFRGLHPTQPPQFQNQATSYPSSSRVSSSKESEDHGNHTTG

[1] = biological target: T2, MBP-PIF3ala1+2 (PIF3 S23A S115A S116A) (Arabidopsis thaliana, UniProt O80536 1-524, S23A | S115A | S116A)
T2 construct: Transcription factor PIF3, Arabidopsis thaliana, AGI AT1G09530; ala1: Ser-23 to Ala; ala2: Ser-115 and Ser-116 to Ala; The cloning of the mutant into pMAL is not described on its own; source: E. coli BL21 (DE3), purified (amylose resin)
T2 sequence (looked up): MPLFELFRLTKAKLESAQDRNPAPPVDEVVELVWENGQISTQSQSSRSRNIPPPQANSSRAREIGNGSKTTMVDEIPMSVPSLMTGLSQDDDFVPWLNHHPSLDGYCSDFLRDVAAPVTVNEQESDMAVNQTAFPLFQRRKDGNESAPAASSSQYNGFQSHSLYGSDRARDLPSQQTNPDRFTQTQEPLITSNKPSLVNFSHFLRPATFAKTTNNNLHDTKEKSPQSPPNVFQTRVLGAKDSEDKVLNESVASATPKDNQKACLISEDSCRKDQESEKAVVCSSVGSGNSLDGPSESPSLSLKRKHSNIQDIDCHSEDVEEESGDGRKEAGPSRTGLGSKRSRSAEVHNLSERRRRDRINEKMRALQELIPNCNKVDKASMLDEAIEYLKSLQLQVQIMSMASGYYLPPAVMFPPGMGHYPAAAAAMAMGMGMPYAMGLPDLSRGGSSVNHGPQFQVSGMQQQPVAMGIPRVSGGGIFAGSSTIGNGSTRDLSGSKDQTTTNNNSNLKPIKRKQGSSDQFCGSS

[2] = biological target: T3, maltose-binding protein (MBP)-tagged PIF3 (Arabidopsis thaliana, UniProt O80536 1-524)
T3 construct: Transcription factor PIF3, Arabidopsis thaliana, AGI AT1G09530; also called MBP-PIF3; source: E. coli BL21 (DE3), purified (amylose resin)
T3 sequence (looked up): T2 sequence (looked up) with A23S, A115S, A116S

binding result (MBP-PIF1): binds
binding result [1]: binds
binding result [2]: binds
B1: His-tagged 14-3-3κ (natural protein, Arabidopsis thaliana, UniProt P48348 1-248, looked up)
chain: MATTLSRDQYVYMAKLAEQAERYEEMVQFMEQLVSGATPAGELTVEERNLLSVAYKNVIGSLRAAWRIVSSIEQKEESRKNEEHVSLVKDYRSKVETELSSICSGILRLLDSHLIPSATASESKVFYLKMKGDYHRYLAEFKSGDERKTAAEDTMIAYKAAQDVAVADLAPTHPIRLGLALNFSVFYYEILNSSEKACSMAKQAFEEAIAELDTLGEESYKDSTLIMQLLRDNLTLWTSDMQEQMDEA
notes: 14-3-3 kappa isoform, Arabidopsis thaliana; also called HIS-14-3-3κ; His-14-3-3κ
